T1: human PTK7 on cells (tumor cells endogenously expressing PTK7); CHO-hPTK7, CHO-S-hPTK7 and 293T-hPTK7 … (human, UniProt Q13308 31-1070)
T1 construct: whole, on cells; The cell line of each value is named under assay; also called H1299; H358
T1 sequence (looked up): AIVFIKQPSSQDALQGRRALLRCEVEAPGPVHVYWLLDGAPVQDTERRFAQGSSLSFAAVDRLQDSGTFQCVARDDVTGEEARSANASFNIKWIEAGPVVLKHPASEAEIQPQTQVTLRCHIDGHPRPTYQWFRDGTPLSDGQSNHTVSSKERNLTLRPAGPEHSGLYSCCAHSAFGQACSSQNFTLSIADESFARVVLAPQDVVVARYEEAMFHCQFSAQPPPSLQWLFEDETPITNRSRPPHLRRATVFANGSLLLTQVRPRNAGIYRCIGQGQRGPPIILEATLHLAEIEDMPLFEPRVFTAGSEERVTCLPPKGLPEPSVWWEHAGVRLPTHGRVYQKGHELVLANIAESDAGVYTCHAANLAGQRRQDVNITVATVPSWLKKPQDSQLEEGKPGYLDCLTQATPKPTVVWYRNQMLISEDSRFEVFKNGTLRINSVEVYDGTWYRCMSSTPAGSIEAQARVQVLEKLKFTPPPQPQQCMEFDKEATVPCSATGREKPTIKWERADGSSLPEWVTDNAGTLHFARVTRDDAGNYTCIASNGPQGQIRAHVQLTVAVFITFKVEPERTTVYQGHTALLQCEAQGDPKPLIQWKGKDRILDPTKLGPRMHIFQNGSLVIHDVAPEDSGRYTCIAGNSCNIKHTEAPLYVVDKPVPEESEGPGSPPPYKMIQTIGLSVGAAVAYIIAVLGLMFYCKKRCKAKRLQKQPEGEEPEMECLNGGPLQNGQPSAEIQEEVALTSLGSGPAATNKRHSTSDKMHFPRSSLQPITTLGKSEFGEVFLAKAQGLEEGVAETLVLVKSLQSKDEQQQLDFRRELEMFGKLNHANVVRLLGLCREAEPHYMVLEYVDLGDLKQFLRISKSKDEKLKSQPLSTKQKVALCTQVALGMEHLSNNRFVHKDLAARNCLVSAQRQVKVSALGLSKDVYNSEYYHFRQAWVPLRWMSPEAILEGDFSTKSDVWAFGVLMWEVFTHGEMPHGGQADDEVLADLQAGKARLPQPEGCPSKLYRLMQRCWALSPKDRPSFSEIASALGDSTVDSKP

T2: human PTK7 protein (extracellular sequence of human PTK7 with C-terminal 6×His tag) (human, UniProt Q13308 31-704)
T2 construct: extracellular domain; Expressed transiently in HEK293 cells; also called human PTK7-His; human PTK7-His protein
T2 sequence: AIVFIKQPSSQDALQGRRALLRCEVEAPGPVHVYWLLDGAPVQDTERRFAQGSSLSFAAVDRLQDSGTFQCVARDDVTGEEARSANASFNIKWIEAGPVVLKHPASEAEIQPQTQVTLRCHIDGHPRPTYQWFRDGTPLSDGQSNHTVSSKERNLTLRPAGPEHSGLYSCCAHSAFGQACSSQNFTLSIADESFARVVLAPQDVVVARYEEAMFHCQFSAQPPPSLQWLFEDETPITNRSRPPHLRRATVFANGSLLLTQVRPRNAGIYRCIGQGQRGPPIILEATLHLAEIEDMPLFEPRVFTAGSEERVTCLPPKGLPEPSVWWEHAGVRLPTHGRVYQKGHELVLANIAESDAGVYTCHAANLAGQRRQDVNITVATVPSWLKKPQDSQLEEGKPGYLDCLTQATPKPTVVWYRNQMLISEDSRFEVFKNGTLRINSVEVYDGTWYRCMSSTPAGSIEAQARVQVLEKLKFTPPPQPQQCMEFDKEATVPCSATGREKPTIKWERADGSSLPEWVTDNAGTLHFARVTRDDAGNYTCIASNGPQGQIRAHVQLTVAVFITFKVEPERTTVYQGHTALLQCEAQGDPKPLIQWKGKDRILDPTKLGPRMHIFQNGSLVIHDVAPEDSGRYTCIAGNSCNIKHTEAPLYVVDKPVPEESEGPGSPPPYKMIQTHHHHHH

T3: monkey PTK7 protein (extracellular sequence of monkey PTK7 with C-terminal 6×His tag) (monkey)
T3 chain: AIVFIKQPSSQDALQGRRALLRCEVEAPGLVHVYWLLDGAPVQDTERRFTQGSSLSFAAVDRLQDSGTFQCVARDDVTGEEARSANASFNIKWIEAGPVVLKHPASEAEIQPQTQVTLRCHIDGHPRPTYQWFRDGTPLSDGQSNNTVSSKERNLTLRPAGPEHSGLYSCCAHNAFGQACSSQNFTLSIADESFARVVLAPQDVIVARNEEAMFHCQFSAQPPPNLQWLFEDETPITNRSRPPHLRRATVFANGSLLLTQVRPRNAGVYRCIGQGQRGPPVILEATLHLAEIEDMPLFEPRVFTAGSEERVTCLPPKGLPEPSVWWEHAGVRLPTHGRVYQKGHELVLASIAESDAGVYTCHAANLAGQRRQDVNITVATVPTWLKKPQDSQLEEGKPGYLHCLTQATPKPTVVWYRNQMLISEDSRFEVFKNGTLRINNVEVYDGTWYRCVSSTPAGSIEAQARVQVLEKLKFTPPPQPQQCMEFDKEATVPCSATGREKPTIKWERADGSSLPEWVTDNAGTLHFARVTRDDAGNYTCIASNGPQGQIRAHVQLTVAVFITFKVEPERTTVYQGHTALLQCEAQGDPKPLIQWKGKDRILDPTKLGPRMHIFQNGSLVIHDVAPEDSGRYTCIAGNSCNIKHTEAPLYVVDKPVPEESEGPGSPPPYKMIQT


Key:
[1] = biological target: T1, human PTK7 on cells (tumor cells …); assay: flow cytometry on OVCAR-3 cells
Excerpt: (§1) A flow cytometer (Beckman, Cytoflex) was used for detecting the affinity of the anti-human PTK7 chimeric and humanized antibodies with human non-small cell lung cancer cells H1299, human lung adenocarcinoma cells H1975, human breast cancer cells T47D, human ovarian cancer cells OVCAR-3 (all purchased from NANJING COBIOER BIOSCIENCES CO., LTD) and CHO-hPTK7 overexpression cells.
(§2) The adherent cells were digested by using a pancreatin (Gibco) solution; a proper amount of cells were counted and taken, washed twice by using 1×PBS, and re-suspended in a 1% BSA solution; and then the cells were transferred into a 96-well deep plate at a density of 50 μl/well; a candidate antibody was diluted by using 1% BSA, then 50 μl of diluted antibody was added into the deep plate containing the cells, and incubated for 40 min at 4° C.; the cells were washed twice by using PBS, then 50 μl of diluted secondary antibody was added into each well, uniformly mixed, and incubated for 30 min at 4° C.; and the cells were washed twice by using PBS, then re-suspended in 400 μl of PBS, and subjected to examination by flow cytometer.

[2] = biological target: T1, human PTK7 on cells (tumor cells …); assay: competition flow cytometry on 293T-hPTK7 cells, streptavidin-PE; competitor: biotin-labelled 4E12HZ
[3] = biological target: T2, human PTK7 protein (extracellular …); assay: BLI (ForteBio), antibody on Protein A sensor, human PTK7-His 200-3.125 nM, 1:1 global fit
Excerpt: (§3) The dynamic affinity of the control Hu24 and candidate antibodies 64A10HZ, 101A6HZ, 4E12HZ and 19C2HZ with human PTK7-His was detected by using ForteBio (Pall life sciences).

[4] = biological target: T1, human PTK7 on cells (tumor cells …); assay: flow cytometry on CHO-hPTK7 overexpression cells
Excerpt: as §1, §2

[5] = biological target: T1, human PTK7 on cells (tumor cells …); assay: cell-based or functional assay
[6] = biological target: T3, monkey PTK7 protein (extracellular …); assay: BLI (ForteBio), antibody on Protein A sensor, monkey PTK7 protein in solution
Excerpt: as §3
ELISA and ForteBio were adopted to detect binding of the anti-human PTK7 chimeric and humanized antibodies to the monkey, mouse and rat PTK7 proteins.

[7] = biological target: T1, human PTK7 on cells (tumor cells …); assay: competition flow cytometry on 293T-hPTK7 cells, streptavidin-PE; competitor: biotin-labelled 19C2HZ
[8] = biological target: T1, human PTK7 on cells (tumor cells …); assay: competition flow cytometry on 293T-hPTK7 cells, streptavidin-PE; competitor: biotin-labelled Hu24

EC50 [1] | IC50 (read off the curve) [2] | Kd [3] | koff [3] | kon [3] | EC50 [4] | FADU cell endocytosis activity, EC50 [5] | Kd [6] | IC50 (read off the curve) [7] | IC50 (read off the curve) [8] | Binder
0.0397 µg/mL | – | – | – | – | – | – | – | – | – | 64A10HZ05 (VH3+VL2) (anti-human PTK7 humanized antibody) (antibody, human IgG1, kappa, V domains shown, Human IgG1 heavy chain constant region and human Kappa light chain constant region) VH: QVQLQESGPGLVKPSETLSLTCTVSGFSLTSYGVYWVRQPPGKGLEWLGVIWTSGNTNYNPSLKSRLTISKDNSKNQVSLKLSSVTAADTAVYYCVKHDGGNYVGVMNYWGQGTLVTVSS VL: DIQMTQSPSSLSASVGDRVTITCRASQSISDYLHWYQQKPGKAPKLLIKYASQSISGVPSRFSGSGSGSDFTLTISSLQPEDFATYYCQNGHSFPPTFGGGTKVEIKR
– | ~0.1 µg/mL | 22 nM | 0.00534 s⁻¹ | 243000 M⁻¹ s⁻¹ | 0.0414 µg/mL | 0.147 µg/mL | 9.68 nM | – | – | 4E12HZ (anti-human PTK7 humanized antibody) (antibody, human IgG1, kappa, V domains shown, Human IgG1 heavy chain constant region and human Kappa light chain constant region) VH: QVQLVQSGAEVKRPGASVKVSCKTSGYTFTDYAMHWVRQAPGKGLEWIGVISTYYGNVSYNQKFKGRVTMTRDTSTSTVYMELSSLTSEDTAIYYCARGFAYWGQGTLVTVSS VL: DIVITQTELSLPVTPGERASISCRSSKSLQKKDGKTYLNWFLQKPGQSPQLLIYLMSTRASGVSDRFSGSGSGTDFTLKISRVEAEDVGVYYCQQLVEYPFTFGQGTKLEIKR
– | – | 3.7 nM | 0.000728 s⁻¹ | 197000 M⁻¹ s⁻¹ | 0.201 µg/mL | 0.134 µg/mL | 0.092 nM | ~0.8 µg/mL | ~0.6 µg/mL | 19C2HZ (anti-human PTK7 humanized antibody) (antibody, human IgG1, kappa, V domains shown, Human IgG1 heavy chain constant region and human Kappa light chain constant region) VH: QVTLKESGPTLVKPTQTLTLTCTFSGFSLSTSGMGINWIRQPPGKALEWLALIWWDDDKYYNPSLKNRLTITKDTSKNQVVLTMTNMDPVDTATYYCARSLITTAPSDYWGQGTLVTVSS VL: DIQMTQSPSSLSASVGDRVTITCKASQNVGTAITWYQQRPGKAPKLLIYSASNRYTGVPSRFSGSGSGTDFTLTISNLQPEDLATYFCLQYSDYPLTFGQGTRLEIKR
